From the supplement of paper PMC7877785
± gives the uncertainty stated by the source.

Test: self-splicing fitness, log relative to wild type (ln ratio); higher = more splicing; Tetrahymena group I intron in knt gene, E. coli kanamycin selection, DiMSum; sequences stand for … in CUCUCU…GGAGGGAAAAGUUAUCAGGCAUGCACCUGGUAGCUAGUCUUUAAACCAAUAGAUUGCAUCGGUUUAAAAGGCAAGACCGUCAAAUUGCGGGAAAGGGGUCAACAGCCGUUCAGUACCAAGUCUCAGGGGAAACUUUGAGAUGGCCUUGCAAAGGGUAUGGUAAUAAGCUGACGGACAUGGUCCUAACCACGCAGCCAAGUCCUAAGUCAACAGAUCUUCUGUUGAUAUGGAUGCAGUUCACAGACUAAAUGUCGGUCGGGGAAGAUGUAUUCUUCUCAUAAGAUAUAGUCGGACCUCUCCUUAAUGGGAGCUAGCGGAUGAAGUGAUGCAACACUGGAGCCGCUGGGAACUAAUUUGUAUGCGAAAGUAUAUUGAUUAGUUUUGGAGUACUCGUGGUCG
Method in brief: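 Library with all eight P1ex-region intron nucleotides randomised, intron inside the knt kanamycin-resistance gene on pET-22b(+), in E. coli BL21(DE3). Cells grew overnight at 37°C or 30°C on LB agar with or without 25 μg/mL kanamycin (plus 100 μg/mL carbenicillin, 50 μM IPTG, 0.2% rhamnose), in six replicate transformations. Pooled colonies were amplicon-sequenced on Illumina HiSeq 2500. DiMSum fitness is the error-weighted combination of wild-type-normalised replicate fold changes, kanamycin versus none.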

Row | Sequence | self-splicing fitness (ln) (30 °C) | self-splicing fitness (ln) (37 °C)
1 | GACUAGCAAUAUUACGCGGA | -1.55 ± 0.13 | -0.984 ± 0.11
2 | UUAGAGCAAUAUUACGGGCG | -2.23 ± 0.14 | -1.13 ± 0.17
3 | UCUGAGCAAUAUUACGCAUG | -2.33 ± 0.18 | -1.65 ± 0.17
4 | ACCCAGCAAUAUUACGCGUG | -3.53 ± 0.17 | -1.9 ± 0.13
5 | UUAGAGCAAUAUUACGGAGU | -4.12 ± 0.39 | -2.9 ± 0.32
6 | CACCAGCAAUAUUACGCAGC | -3.44 ± 0.16 | -1.77 ± 0.12
7 | AUUAAGCAAUAUUACGUAAA | -1.29 ± 0.12 | -1.15 ± 0.14
8 | GUCUAGCAAUAUUACGCUAG | -2.97 ± 0.32 | -2.31 ± 0.31
9 | AUACAGCAAUAUUACGCGAC | -1.87 ± 0.14 | -1.97 ± 0.22
10 | UGACAGCAAUAUUACGGCGC | -2.47 ± 0.15 | -1.25 ± 0.15
11 | UACGAGCAAUAUUACGAUAG | -3.66 ± 0.47 | -2.31 ± 0.42
12 | GCAAAGCAAUAUUACGUGAC | -2.78 ± 0.12 | -1.1 ± 0.13
13 | AUUGAGCAAUAUUACGCAAA | -3.02 ± 0.29 | 
14 | UGGUAGCAAUAUUACGCUGA | -1.07 ± 0.15 | -0.679 ± 0.11
15 | GCACAGCAAUAUUACGGACG | -1.3 ± 0.14 | 0.0137 ± 0.14
16 | ACAUAGCAAUAUUACGCACA | -0.98 ± 0.099 | -0.0165 ± 0.12
17 | UGGAAGCAAUAUUACGAUAC | -3.37 ± 0.49 | -2.54 ± 0.48
18 | ACACAGCAAUAUUACGCCUC | -2.92 ± 0.18 | -1.73 ± 0.2
19 | CUUGAGCAAUAUUACGUGAA | -3.07 ± 0.2 | -2.36 ± 0.3
20 | AGACAGCAAUAUUACGAACU | -0.675 ± 0.076 | 0.326 ± 0.096

Row | Sequence | self-splicing fitness (ln) (30 °C) | self-splicing fitness (ln) (37 °C)
21 | GGCUAGCAAUAUUACGGUGG | -1.23 ± 0.096 | -0.767 ± 0.1
22 | CUAGAGCAAUAUUACGCGUG | -0.446 ± 0.1 | -0.476 ± 0.12
23 | UUUGAGCAAUAUUACGUCGA | -2.46 ± 0.2 | -0.692 ± 0.24
24 | AUAGAGCAAUAUUACGGCCU | -0.822 ± 0.2 | -0.365 ± 0.21
25 | CCUCAGCAAUAUUACGACUA | -3.2 ± 0.43 | -3.06 ± 0.32
26 | ACGGAGCAAUAUUACGACAG | -2.34 ± 0.26 | -2.62 ± 0.34
27 | CCGGAGCAAUAUUACGCUGC |  | -2.04 ± 0.38
28 | AGAGAGCAAUAUUACGCGUG | -3.83 ± 0.36 | -1.44 ± 0.18
29 | AUAAAGCAAUAUUACGCAUG | -0.888 ± 0.073 | -0.405 ± 0.093
30 | CGGGAGCAAUAUUACGUUAG | -3.18 ± 0.26 | -1.9 ± 0.29
31 | GAUGAGCAAUAUUACGCGUG | -0.71 ± 0.14 | -1.14 ± 0.16
32 | CUUCAGCAAUAUUACGAAAU | -2.2 ± 0.31 | -2.4 ± 0.5
33 | UUAAAGCAAUAUUACGAGUU | -2.82 ± 0.18 | -1.38 ± 0.16
34 | CGACAGCAAUAUUACGGACC | -2.09 ± 0.083 | -0.0291 ± 0.11
35 | CGGGAGCAAUAUUACGGAAU | -4.07 ± 0.46 | -1.42 ± 0.43
36 | AGCGAGCAAUAUUACGAUAA |  | -2.17 ± 0.24
37 | GCUUAGCAAUAUUACGACUC | -0.244 ± 0.15 | 0.619 ± 0.18
38 | GGCAAGCAAUAUUACGAUAC | -0.974 ± 0.076 | -0.363 ± 0.087
39 | UAAUAGCAAUAUUACGAGAG |  | -2.68 ± 0.3
